These results are taken from patent US20260216299A1, “Use of Cytoglobin in Preparation of Drug for Preventing and/or Treating Diabetes” (priority 2022, published 2026).

Common to all, as to format: in vivo, C57BL/6J mice
In assay [1] the test system is C57BL/6J diabetic model mice. In words: Four blood lipid items in serum of treated mice (T-CHO, TG, HDL-C, LDL-C kits). Particulars: after 28 d of treatment. As to the method:
(§1) The AUC for blood glucose changes within two hours post-glucose gavage was shown in FIG. 5, confirming impaired glucose tolerance in the DM group. • 2) Successfully modeled mice were divided into three groups based on no statistical difference in blood glucose within groups and statistical difference in blood glucose between groups: wherein the three groups are rhCygb treatment group (5 mg/kg subcutaneous injection), exendin-4 treatment group (50 μg/kg subcutaneous injection), and placebo group (0.1 mL PBS subcutaneous injection) (grouping without re-caging, mice remained in original cages), respectively.
(§2) The mice of placebo group, rhCygb treatment group, and EX-4 treatment group received daily subcutaneous injections of PBS, rhCygb, or EX-4, respectively for 2 months (frequency adjusted based on survival status of mice). […] Mice were immediately sacrificed by cervical dislocation after blood collection and dissected for tissue collection. Liver tissue, pancreas, kidneys, heart, lungs, stomach, and spleen were sequentially collected for biochemical and pathological examination as detailed below. 3. Measurement of four blood lipid items • 1) Total Cholesterol (T-CHO) Measurement: prepared serum was diluted tenfold with physiological saline at a 1:9 ratio. Into each well of a 96-well plate, 2.5 μL of deionized water, 2.5 μL of standard, and 2.5 μL of sample were sequentially added. Then, 250 μL of working solution was added to each well, thoroughly mixed, and incubated at 37° C. for 10 min in an electric thermostatic incubator. Absorbance at 510 nm was measured using a microplate reader. Cholesterol content was calculated according to the formula: […]
Serum from each treated C57BL/6J mouse was assayed using a total cholesterol assay kit. […] Furthermore, no significant difference was observed between the treated groups (rhCygb treatment group and exendin-4 treatment group) and the blank control group, indicating effective therapeutic outcomes. • 2) Triglyceride (TG) Measurement: prepared serum was diluted tenfold with physiological saline at a 1:9 ratio. […] Absorbance at 510 nm was measured using a microplate reader. Triglyceride content was calculated according to the formula: […]
Serum from each treated C57BL/6J mouse was assayed using a triglyceride assay kit. […] Absorbance at 546 nm (A1) was measured using a microplate reader. […] Absorbance at 546 nm (A2) was measured again. HDL-C content was calculated according to the formula: […]
Serum from each treated C57BL/6J mouse was assayed using an HDL-C assay kit. […] Absorbance at 546 nm (A1) was measured using a microplate reader. […] Absorbance at 546 nm (A2) was measured again. LDL-C content was calculated according to the formula: […]

Another assay deals with PCNA. Nature of the assay: PCNA immunohistochemistry of pancreatic tissue. Particulars: pancreas; 4-week treatment; FIG. 15 to 16D. As to the method:
(§3) Pancreatic tissues were sectioned at 4 μm and baked at 60° C. for 2 h until paraffin melted. Sections underwent hematoxylin-eosin (H&E) staining.
(§4) Sections were immersed in methanol containing 3% hydrogen peroxide (endogenous peroxidase blocker) for 15 min. After PBS (10 mM, pH=7.0) rinsing, sections were incubated at 25° C. for 1 h with antibody cocktails (rabbit anti-glucagon monoclonal antibody: anti-somatostatin antibody=1:1), or separately with: anti-mouse insulin antigen monoclonal antibody, anti-proliferating cell nuclear antigen (PCNA) monoclonal antibody, rabbit anti-Ki67 monoclonal antibody. Alternatively, sections were incubated with guinea pig anti-PDX-1 monoclonal antibody at 4° C. for 14 h. Nuclei were counterstained blue with hematoxylin and sections were subjected to morphometric analysis.
PCNA Analysis method: The immunohistochemistry results were analyzed for percentage using Image-Pro Plus 6.0 (Media Cybernetics, Rockville, MD, USA), at least 3 random field of view at 200× per section within a group were captured. […] Each photo was analyzed to obtain the number of positive cells and the total number of cells in each photo. Then, the percentage of positive cells was calculated, as: Positive cell percentage (%)=(Positive nuclei count/Total nuclei count)*100 was calculated as the positive rate.

The subject of assay [2] is renal tissue of C57BL/6J diabetic model mice. In words: H&E staining of renal tissue. Conditions: FIG. 14. On the procedure: as §1
as §2, with “Into each well of a 96-well plate, 2.5 μL of deionized water, 2.5 μL of standard, and 2.5 μL of sample were sequentially added. Then, 250 μL of working solution was added to each well, thoroughly mixed, and incubated at 37° C. for 10 min in an electric thermostatic incubator.” left out

Assay [3] concerns pancreatic tissue of C57BL/6J diabetic model mice. Nature of the assay: H&E staining of pancreatic tissue sections. As to the method:
as §1
(§5) The mice of placebo group, rhCygb treatment group, and EX-4 treatment group received daily subcutaneous injections of PBS, rhCygb, or EX-4, respectively for 2 months (frequency adjusted based on survival status of mice). […] Absorbance at 510 nm was measured using a microplate reader. Cholesterol content was calculated according to the formula: […]
The severity of lesions observed in the HE-stained pathological sections of each mouse was graded. This ordinal data was analyzed using the K Independent Samples non-parametric test in SPSS software, and the result indicated a statistically significant difference between groups. As SPSS lacks pairwise comparison for multiple independent samples, all data were ranked and converted into quantitative data, then subjected to one-way ANOVA.

Assay [4] has as its system Insulin and Glucagon expression in pancreatic islets. In words: Glucagon/Insulin immunohistochemistry of pancreatic islets (average optical density). On the procedure: as §3, §4
Glucagon/Insulin Analysis Method: The immunohistochemistry results were analyzed for average optical density analysis using Image-Pro Plus 6.0 (Media Cybernetics, Inc., Rockville, MD, USA). For each section with a group, at least 3 fields of view at 200× magnification were captured. […] The integrated optical density (IOD) value of positive staining on the pancreatic islet and the pixel area (AREA) of the pancreatic islet were analyzed for each photo. The average optical density value (AO value) was calculated as AO=IOD/AREA. […]

Assay [5] has as its system C57BL/6J diabetic model mice. Nature of the assay: Weekly fasting blood glucose in high-fat diet diabetic model mice under treatment. Conditions: daily subcutaneous injection, rhCygb 5 mg/kg; weekly monitoring; vs PBS group; FIG. 7.
Source text: 50 SPF-grade male C57BL/6J mice were purchased from Guangzhou Sebiona Biotech Co., Ltd. Their health status and whether they were all male were checked. All male mice were divided into groups of 5 per cage, totaling ten cages, with cage numbering. Cages 1 to 8 were designated as the high-fat diet modeling group and fed a high-fat diet with ad libitum feeding and drinking. Cages 9 and 10 were designated as the normal diet modeling group and fed standard chow with ad libitum feeding and drinking. All mice were marked with tail lines for identification. During modeling, body weight and fasting blood glucose (FBG) levels of all mice were measured weekly, and tail markings were reinforced. […] At 9:00 AM every Friday, body weight was measured, the tail tip was clipped, and approximately 1-2 μL of (a drop of) blood was applied to a Roche Accu-Chek® Active test strip on a glucometer to determine FBG. […]
as §5

B1: rhCygb: recombinant human cytoglobin; hexacoordinate heme globin, 21.4 kDa, 190 amino acids, injected as PBS solution (protein, UniProt Q8WWM9 1-190, looked up)
Cytoglobin: MEKVPGEMEIERRERSEELSEAERKAVQAMWARLYANCEDVGVAILVRFFVNFPSAKQYFSQFKHMEDPLEMERSPQLRKHACRVMGALNTVVENLHDPDKVSSVLALVGKAHALKHKVEPVYFKILSGVILEVVAEEFASDFPPETQRAWAKLRGLIYSHVTAAYKEVGWVQQVPNATTPPATLPSSGP
For the molecule B1, the HDL-C levels entry in assay [1] (vs NC group, FIG. 10) is given as “numerically higher HDL-C levels on average compared to other groups”. Moreover, the total cholesterol levels result in assay [1] (subcutaneous rhCygb 5 mg/kg or exendin-4 50 μg/kg, FIG. 8) is “statistically significant reduction in total cholesterol levels compared to the placebo group”. Besides, the LDL-C levels entry in assay [1] (subcutaneous rhCygb 5 mg/kg or exendin-4 50 μg/kg, FIG. 11) was “statistically significant reduction in LDL-C levels compared to the placebo group”. For the same molecule, the triglyceride levels result in assay [1] (subcutaneous rhCygb 5 mg/kg, FIG. 9) is given as “statistically significant reduction in triglyceride levels compared to the placebo group”. In addition, the PCNA-positive cell rate result in the assay with PCNA was “significantly enhanced PCNA staining intensity”. The “renal steatosis and inflammatory cell infiltration (H&E)” value in assay [2] is on record as “near-normal renal morphology without significant inflammatory cells”. Besides, in assay [3] (FIG. 13), the “severity of lesions in HE-stained pancreatic sections (graded, ranked, one-way ANOVA)” value is “no significant difference between rhCygb and NC groups”. In addition, the “pancreatic tissue morphology (H&E)” value in assay [3] (acinar cell steatosis, islet morphology, inflammation, FIGS. 12A-12D) is on record as “normal pancreatic islet morphology without significant inflammation”. In assay [4] (FIG. 17, 19), the “expression level of glucagon (average optical density)” value was “statistically significant differences compared to both the PBS group and the NC group”. Moreover, in assay [4] (FIG. 18, 20), the “expression level of insulin (average optical density)” value is “statistically significant differences compared to both the PBS group and the NC group”. The blood glucose result in assay [5] is reported as “significantly reduced blood glucose after 6 weeks”.
